B1: AMOTL2 peptide 64-79 (Angiomotin-like protein 2), 16-mer library wild type / TNKS ANK (TNKS 12 ANK repeats, residues 174-649) (parent complex)
chain 1: QVLQQATRQEPQGQEH
chain 2: TGVPAVSGALRELLEACRNGDVSRVKRLVDAANVNAKDMAGRKSSPLHFAAGFGRKDVVEHLLQMGANVHARDDGGLIPLHNACSFGHAEVVSLLLCQGADPNARDNWNYTPLHEAAIKGKIDVCIVLLQHGADPNIRNTDGKSALDLADPSAKAVLTGEYKKDELLEAARSGNEEKLMALLTPLNVNCHASDGRKSTPLHLAAGYNRVRIVQLLLQHGADVHAKDKGGLVPLHNACSYGHYEVTELLLKHGACVNAMDLWQFTPLHEAASKNRVEVCSLLLSHGADPTLVNCHGKSAVDMAPTPELRERLTYEFKGHSLLQAAREADLAKVKKTLALEIINFKQPQSHETALHCAVASLHPKRKQVTELLLRKGANVNEKNKDFMTPLHVAAERAHNDVMEVLHKHGAKMNALDTLGQTALHRAALAGHLQTCRLLLSYGSDPSIISLQGFTAAQMGNEAVQQILSESTPIRTSD

Variants of: B1
Assay: proteomic peptide phage display deep mutational scan (ProP-PD DMS): M13 P8 16-mer library selected against immobilised GST-tagged bait for four days (rounds), NGS of the eluted pools per day and pseudo-replica; bait immobilised on MaxiSorp plates (10 µg), library pre-cleared on GST, 2 h binding at 4 °C, five washes; one round per day, days 1-4; value from days 2 and 3

Row | Variant | screen value
1 | chain 1 E10H | 0.000153 average fractional NGS count over selection days 2 and 3 (reads of this peptide / all reads for the bait, averaged over …
2 | chain 1 E10I | 0.000303 average fractional NGS count over selection days 2 and 3 (reads of this peptide / all reads for the bait, averaged over …
3 | chain 1 E10M | 0.00083 average fractional NGS count over selection days 2 and 3 (reads of this peptide / all reads for the bait, averaged over …
4 | chain 1 E10V | 0.000245 average fractional NGS count over selection days 2 and 3 (reads of this peptide / all reads for the bait, averaged over …
5 | chain 1 E10Q | 0.000624 average fractional NGS count over selection days 2 and 3 (reads of this peptide / all reads for the bait, averaged over …
6 | chain 1 E10N | 0.000822 average fractional NGS count over selection days 2 and 3 (reads of this peptide / all reads for the bait, averaged over …
7 | chain 1 E10A | 0.00157 average fractional NGS count over selection days 2 and 3 (reads of this peptide / all reads for the bait, averaged over …
8 | chain 1 E10K | 0.000435 average fractional NGS count over selection days 2 and 3 (reads of this peptide / all reads for the bait, averaged over …
9 | chain 1 E10G | 0.00177 average fractional NGS count over selection days 2 and 3 (reads of this peptide / all reads for the bait, averaged over …
10 | chain 1 E10Y | 0.00125 average fractional NGS count over selection days 2 and 3 (reads of this peptide / all reads for the bait, averaged over …
11 | chain 1 E10L | 0.000172 average fractional NGS count over selection days 2 and 3 (reads of this peptide / all reads for the bait, averaged over …
12 | chain 1 E10F | 0.000339 average fractional NGS count over selection days 2 and 3 (reads of this peptide / all reads for the bait, averaged over …
13 | chain 1 Q9W | 0.000813 average fractional NGS count over selection days 2 and 3 (reads of this peptide / all reads for the bait, averaged over …
14 | chain 1 Q9H | 0.000266 average fractional NGS count over selection days 2 and 3 (reads of this peptide / all reads for the bait, averaged over …
15 | chain 1 Q9Y | 0.000466 average fractional NGS count over selection days 2 and 3 (reads of this peptide / all reads for the bait, averaged over …
16 | chain 1 Q9M | 0.000331 average fractional NGS count over selection days 2 and 3 (reads of this peptide / all reads for the bait, averaged over …
17 | chain 1 Q9E | 0.000877 average fractional NGS count over selection days 2 and 3 (reads of this peptide / all reads for the bait, averaged over …
18 | chain 1 Q9T | 0.000851 average fractional NGS count over selection days 2 and 3 (reads of this peptide / all reads for the bait, averaged over …
19 | chain 1 Q9V | 0.000414 average fractional NGS count over selection days 2 and 3 (reads of this peptide / all reads for the bait, averaged over …
20 | chain 1 Q9L | 0.000942 average fractional NGS count over selection days 2 and 3 (reads of this peptide / all reads for the bait, averaged over …
21 | chain 1 Q9F | 0.000243 average fractional NGS count over selection days 2 and 3 (reads of this peptide / all reads for the bait, averaged over …
22 | chain 1 Q9P | 0.00216 average fractional NGS count over selection days 2 and 3 (reads of this peptide / all reads for the bait, averaged over …
23 | chain 1 Q9A | 0.00163 average fractional NGS count over selection days 2 and 3 (reads of this peptide / all reads for the bait, averaged over …
24 | chain 1 Q5F | 0.00178 average fractional NGS count over selection days 2 and 3 (reads of this peptide / all reads for the bait, averaged over …
25 | chain 1 Q5V | 0.00207 average fractional NGS count over selection days 2 and 3 (reads of this peptide / all reads for the bait, averaged over …

Row | Variant | screen value
26 | chain 1 Q5A | 0.000657 average fractional NGS count over selection days 2 and 3 (reads of this peptide / all reads for the bait, averaged over …
27 | chain 1 Q5K | 0.000455 average fractional NGS count over selection days 2 and 3 (reads of this peptide / all reads for the bait, averaged over …
28 | chain 1 Q5R | 0.000183 average fractional NGS count over selection days 2 and 3 (reads of this peptide / all reads for the bait, averaged over …
29 | chain 1 Q5H | 0.0129 average fractional NGS count over selection days 2 and 3 (reads of this peptide / all reads for the bait, averaged over …
30 | chain 1 Q5S | 0.00183 average fractional NGS count over selection days 2 and 3 (reads of this peptide / all reads for the bait, averaged over …
31 | chain 1 Q5L | 0.00018 average fractional NGS count over selection days 2 and 3 (reads of this peptide / all reads for the bait, averaged over …
32 | chain 1 Q5T | 0.00669 average fractional NGS count over selection days 2 and 3 (reads of this peptide / all reads for the bait, averaged over …
33 | chain 1 Q5E | 0.000474 average fractional NGS count over selection days 2 and 3 (reads of this peptide / all reads for the bait, averaged over …
34 | chain 1 Q5Y | 0.000959 average fractional NGS count over selection days 2 and 3 (reads of this peptide / all reads for the bait, averaged over …
35 | chain 1 Q5M | 0.000456 average fractional NGS count over selection days 2 and 3 (reads of this peptide / all reads for the bait, averaged over …
36 | chain 1 Q5P | 0.000503 average fractional NGS count over selection days 2 and 3 (reads of this peptide / all reads for the bait, averaged over …
37 | chain 1 P11A | 0.000173 average fractional NGS count over selection days 2 and 3 (reads of this peptide / all reads for the bait, averaged over …
38 | chain 1 P11T | 0.00762 average fractional NGS count over selection days 2 and 3 (reads of this peptide / all reads for the bait, averaged over …
39 | chain 1 P11V | 0.000173 average fractional NGS count over selection days 2 and 3 (reads of this peptide / all reads for the bait, averaged over …
40 | chain 1 A6E | 0.000304 average fractional NGS count over selection days 2 and 3 (reads of this peptide / all reads for the bait, averaged over …
41 | chain 1 A6S | 0.000255 average fractional NGS count over selection days 2 and 3 (reads of this peptide / all reads for the bait, averaged over …
42 | chain 1 A6N | 0.000341 average fractional NGS count over selection days 2 and 3 (reads of this peptide / all reads for the bait, averaged over …
43 | chain 1 A6R | 0.000251 average fractional NGS count over selection days 2 and 3 (reads of this peptide / all reads for the bait, averaged over …
44 | chain 1 A6W | 0.000677 average fractional NGS count over selection days 2 and 3 (reads of this peptide / all reads for the bait, averaged over …
45 | chain 1 A6M | 0.000267 average fractional NGS count over selection days 2 and 3 (reads of this peptide / all reads for the bait, averaged over …
46 | chain 1 A6H | 0.00168 average fractional NGS count over selection days 2 and 3 (reads of this peptide / all reads for the bait, averaged over …
47 | chain 1 A6I | 0.000647 average fractional NGS count over selection days 2 and 3 (reads of this peptide / all reads for the bait, averaged over …
48 | chain 1 A6V | 0.0104 average fractional NGS count over selection days 2 and 3 (reads of this peptide / all reads for the bait, averaged over …
49 | chain 1 A6G | 0.000155 average fractional NGS count over selection days 2 and 3 (reads of this peptide / all reads for the bait, averaged over …
50 | chain 1 G13R | 0.000155 average fractional NGS count over selection days 2 and 3 (reads of this peptide / all reads for the bait, averaged over …

Row | Variant | screen value
51 | chain 1 T7V | 0.00296 average fractional NGS count over selection days 2 and 3 (reads of this peptide / all reads for the bait, averaged over …
52 | chain 1 T7A | 0.000494 average fractional NGS count over selection days 2 and 3 (reads of this peptide / all reads for the bait, averaged over …
53 | chain 1 T7M | 0.000455 average fractional NGS count over selection days 2 and 3 (reads of this peptide / all reads for the bait, averaged over …
54 | chain 1 T7H | 0.00103 average fractional NGS count over selection days 2 and 3 (reads of this peptide / all reads for the bait, averaged over …
55 | chain 1 T7S | 0.000189 average fractional NGS count over selection days 2 and 3 (reads of this peptide / all reads for the bait, averaged over …
56 | chain 1 T7I | 0.000358 average fractional NGS count over selection days 2 and 3 (reads of this peptide / all reads for the bait, averaged over …
57 | chain 1 T7L | 0.000808 average fractional NGS count over selection days 2 and 3 (reads of this peptide / all reads for the bait, averaged over …
58 | chain 1 T7Y | 0.00199 average fractional NGS count over selection days 2 and 3 (reads of this peptide / all reads for the bait, averaged over …
59 | chain 1 T7G | 0.00299 average fractional NGS count over selection days 2 and 3 (reads of this peptide / all reads for the bait, averaged over …
60 | chain 1 T7Q | 0.000226 average fractional NGS count over selection days 2 and 3 (reads of this peptide / all reads for the bait, averaged over …
61 | chain 1 T7P | 0.000581 average fractional NGS count over selection days 2 and 3 (reads of this peptide / all reads for the bait, averaged over …
62 | chain 1 T7N | 0.00127 average fractional NGS count over selection days 2 and 3 (reads of this peptide / all reads for the bait, averaged over …
63 | chain 1 T7E | 0.000563 average fractional NGS count over selection days 2 and 3 (reads of this peptide / all reads for the bait, averaged over …
64 | chain 1 V2N | 0.00035 average fractional NGS count over selection days 2 and 3 (reads of this peptide / all reads for the bait, averaged over …
65 | chain 1 V2T | 0.00555 average fractional NGS count over selection days 2 and 3 (reads of this peptide / all reads for the bait, averaged over …
66 | chain 1 V2E | 0.00192 average fractional NGS count over selection days 2 and 3 (reads of this peptide / all reads for the bait, averaged over …
67 | chain 1 V2R | 0.000931 average fractional NGS count over selection days 2 and 3 (reads of this peptide / all reads for the bait, averaged over …
68 | chain 1 V2S | 0.000464 average fractional NGS count over selection days 2 and 3 (reads of this peptide / all reads for the bait, averaged over …
69 | chain 1 V2A | 0.00302 average fractional NGS count over selection days 2 and 3 (reads of this peptide / all reads for the bait, averaged over …
70 | chain 1 V2I | 0.0014 average fractional NGS count over selection days 2 and 3 (reads of this peptide / all reads for the bait, averaged over …
71 | chain 1 V2D | 0.000341 average fractional NGS count over selection days 2 and 3 (reads of this peptide / all reads for the bait, averaged over …
72 | chain 1 V2W | 0.00102 average fractional NGS count over selection days 2 and 3 (reads of this peptide / all reads for the bait, averaged over …
73 | chain 1 V2H | 0.00146 average fractional NGS count over selection days 2 and 3 (reads of this peptide / all reads for the bait, averaged over …
74 | chain 1 Q14R | 0.0014 average fractional NGS count over selection days 2 and 3 (reads of this peptide / all reads for the bait, averaged over …
75 | chain 1 Q14D | 0.00025 average fractional NGS count over selection days 2 and 3 (reads of this peptide / all reads for the bait, averaged over …
